Test results published in article doi:10.1101/815886.
Several values for one entry are separate records, joined by “and”; a condition that tells them apart may be missing. Equal values may be shown once. Read-outs that look alike come from different tables or passages of the source.

What was measured:
Conditions in all cases: remark: other sources report otherwise
[1] = molecular target: T1, human CTC1-STN1-TEN1 (CST) heterotrimeric complex (human), Q2NKJ3; assay: negative-stain EM single-particle analysis
T1 chain 1: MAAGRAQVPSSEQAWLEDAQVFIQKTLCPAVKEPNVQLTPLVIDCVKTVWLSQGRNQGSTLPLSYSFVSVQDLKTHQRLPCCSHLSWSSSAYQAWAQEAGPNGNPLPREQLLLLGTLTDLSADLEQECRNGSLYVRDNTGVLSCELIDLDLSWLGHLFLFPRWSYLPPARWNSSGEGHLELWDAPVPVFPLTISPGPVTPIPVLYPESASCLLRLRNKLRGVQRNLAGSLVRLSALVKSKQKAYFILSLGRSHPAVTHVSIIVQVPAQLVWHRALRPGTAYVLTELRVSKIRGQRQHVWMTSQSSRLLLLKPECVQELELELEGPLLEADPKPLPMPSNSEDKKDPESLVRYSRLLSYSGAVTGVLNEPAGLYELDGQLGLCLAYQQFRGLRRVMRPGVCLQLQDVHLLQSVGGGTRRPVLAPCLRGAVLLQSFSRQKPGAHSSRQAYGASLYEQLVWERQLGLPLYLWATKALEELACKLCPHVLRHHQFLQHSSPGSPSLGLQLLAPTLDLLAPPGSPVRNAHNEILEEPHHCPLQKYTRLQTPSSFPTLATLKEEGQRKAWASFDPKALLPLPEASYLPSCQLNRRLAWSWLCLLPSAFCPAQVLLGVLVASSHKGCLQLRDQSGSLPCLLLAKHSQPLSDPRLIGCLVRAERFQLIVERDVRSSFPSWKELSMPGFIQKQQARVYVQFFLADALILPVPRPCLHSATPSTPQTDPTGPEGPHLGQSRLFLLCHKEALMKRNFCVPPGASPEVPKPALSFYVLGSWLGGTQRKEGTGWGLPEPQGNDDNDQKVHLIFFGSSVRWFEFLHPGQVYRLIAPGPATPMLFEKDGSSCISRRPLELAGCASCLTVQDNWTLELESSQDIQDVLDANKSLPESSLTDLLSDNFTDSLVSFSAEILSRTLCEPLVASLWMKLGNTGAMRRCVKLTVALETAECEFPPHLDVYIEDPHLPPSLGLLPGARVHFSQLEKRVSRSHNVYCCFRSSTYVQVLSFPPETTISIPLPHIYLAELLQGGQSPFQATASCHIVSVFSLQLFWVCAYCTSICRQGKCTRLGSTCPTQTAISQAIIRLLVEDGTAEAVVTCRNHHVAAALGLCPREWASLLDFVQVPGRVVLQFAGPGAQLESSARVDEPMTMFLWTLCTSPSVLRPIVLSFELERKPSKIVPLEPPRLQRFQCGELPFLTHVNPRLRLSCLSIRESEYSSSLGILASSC
T1 chain 2: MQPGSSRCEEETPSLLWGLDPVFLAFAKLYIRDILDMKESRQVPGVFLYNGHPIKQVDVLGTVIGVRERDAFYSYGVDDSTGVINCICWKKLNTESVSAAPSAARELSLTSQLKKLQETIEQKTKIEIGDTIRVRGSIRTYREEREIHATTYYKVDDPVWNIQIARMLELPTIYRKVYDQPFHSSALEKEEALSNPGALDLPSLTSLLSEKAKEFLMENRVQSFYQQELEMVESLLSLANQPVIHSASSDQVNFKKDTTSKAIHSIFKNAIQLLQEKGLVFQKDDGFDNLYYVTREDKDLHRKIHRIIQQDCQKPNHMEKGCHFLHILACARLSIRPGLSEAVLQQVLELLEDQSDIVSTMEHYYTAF
T1 chain 3: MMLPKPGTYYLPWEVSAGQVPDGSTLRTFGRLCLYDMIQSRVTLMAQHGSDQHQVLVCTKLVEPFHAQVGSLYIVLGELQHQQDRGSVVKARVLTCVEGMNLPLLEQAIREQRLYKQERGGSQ

[2] = molecular target: T1, human CTC1-STN1-TEN1 (CST) …; assay: cryo-EM structure
[3] = molecular target: T1, human CTC1-STN1-TEN1 (CST) …
[4] = molecular target: T1, human CTC1-STN1-TEN1 (CST) …; assay: negative-stain EM single-particle analysis

B1: human CTC1-STN1-TEN1 (CST) heterotrimeric complex, Q2NKJ3;Q9H668;Q86WV5 (complex)
chain 1: T1 chain 1
chain 2: T1 chain 2
chain 3: T1 chain 3
stoichiometry N [1]: 4 and 2
stoichiometry N [2]: 10
stoichiometry N [3]: 10
stoichiometry N [4]: 10
